Values of other authors in article PMC5100577.

Target: H2A-H2B dimer (Saccharomyces cerevisiae) (UniProt P04911)
Experiment: fluorescence dequenching

Chain of UniProt P04911 (P04911 2-132, chain 1 of 2): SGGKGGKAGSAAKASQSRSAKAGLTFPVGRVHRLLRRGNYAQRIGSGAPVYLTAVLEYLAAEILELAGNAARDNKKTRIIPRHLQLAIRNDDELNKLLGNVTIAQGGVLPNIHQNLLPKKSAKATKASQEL
Chain of UniProt P04911 (P02293 2-131, chain 2 of 2, further chain): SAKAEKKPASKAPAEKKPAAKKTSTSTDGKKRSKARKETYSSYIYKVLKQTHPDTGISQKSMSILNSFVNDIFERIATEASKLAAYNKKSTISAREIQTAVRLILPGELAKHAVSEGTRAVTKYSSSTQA

FACT (from UniProt P32558)
Kd: 21.4 nM
